From patent publication US5910570A, “Cloned DNA encoding a UDP-GalNAc: polypeptide N-acetylgalactosaminy-ltransferase” (Pharmacia & Upjohn Company, priority 1997, dated 1999)
Where “and” joins values, the source holds several entries; their conditions need not be identical. Identical values can stand only once.

B1: cloned soluble GalNAc-transferase (GalNAcTs) (Bos taurus) (protein)
chain: LEPVQKPHEGPGEMGKPVVIPKEDQEKMKEMFKINQFNLMASEMIALNRSLPDVRLEGCKTKVYPDNLPTTSVVIVFHNEAWSTLLRTVHSVINRSPRHMLEEIVLVDDASERDFLKRPLESYVKKLKVPVHVIRMEQRSGLIRARLKGAAVSKGQVITFLDAHCECTVGWLEPLLARIKHDRKTVVCPIIDVISDDTFEYMAGSDMTYGGFNWKLNFRWYPVPQREMDRRKGDRTLPVRTPTMAGGLFSIDRDYFQEIGTYDAGMDIWGGENLEISFRIWQCGGTLEIVTCSHVGHVFRKATPYTFPGGTGQIINKNNRRLAEVWMDEFKNFFYIISPGVTKVDYGDISSRLGLRHKLQCRPFSWYLENIYPDSQIPRHYFSLGEIRNVETNQCLDNMARKENEKVGIFNCHGMGGNQVFSYTANKEIRTDDLCLDVSKLNGPVTMLKCHHLKGNQLWEYDPVKLTLQHVNSNQCLDKATDEDSQVPSIRDCSGSRSQQWLLRNVTLPEIF
notes: The plasmid pAC373-GalNAcT (Homa et al., 1993) which contains the full length GalNAc-transferase gene; honeybee melittin signal peptide (21 aa) (N, cleaved yes); made in house; host or cells: Sf9 cells / baculovirus, purified from serum-free culture medium on apomucin-Sepharose
B2: bovine colostrum GalNAc-transferase (Bos taurus) (protein)
chain: GLPAGDVLEPVQKPHEGPGEMGKPVVIPKEDQEKMKEMFKINQFNLMASEMIALNRSLPDVRLEGCKTKVYPDNLPTTSVVIVFHNEAWSTLLRTVHSVINRSPRHMLEEIVLVDDASERDFLKRPLESYVKKLKVPVHVIRMEQRSGLIRARLKGAAVSKGQVITFLDAHCECTVGWLEPLLARIKHDRKTVVCPIIDVISDDTFEYMAGSDMTYGGFNWKLNFRWYPVPQREMDRRKGDRTLPVRTPTMAGGLFSIDRDYFQEIGTYDAGMDIWGGENLEISFRIWQCGGTLEIVTCSHVGHVFRKATPYTFPGGTGQIINKNNRRLAEVWMDEFKNFFYIISPGVTKVDYGDISSRLGLRHKLQCRPFSWYLENIYPDSQIPRHYFSLGEIRNVETNQCLDNMARKENEKVGIFNCHGMGGNQVFSYTANKEIRTDDLCLDVSKLNGPVTMLKCHHLKGNQLWEYDPVKLTLQHVNSNQCLDKATDEDSQVPSIRDCSGSRSQQWLLRNVTLPEIF
notes: from tissue; host or cells: bovine colostrum

What was measured:
Assay type in all cases: biochemical, bovine
[1] = substrate: CC(C)C[C@H](NC(=O)[C@@H]1CCCN1C(=O)[C@H](C)NC(=O)[C@H](C)NC(=O)[C@H](CO)NC(=O)[C@H](C)NC(=O)[C@H](C)NC(=O)[C@H](CC(=O)O)NC(=O)[C@@H]1CCCN1C(=O)[C@@H]1CCCN1)C(=O)N[C@@H](CCCNC(=N)N)C(=O)O; test: Kinetic parameters with the cloned soluble GalNAc-transferase (Bond Elut assay); details: other: GalNAcTs; double reciprocal plots
[2] = substrate: C[C@H](NC(=O)[C@@H]1CCCN1C(=O)[C@@H]1CCCN1)C(=O)N[C@@H](CO)C(=O)N[C@H](C(=O)N[C@@H](CO)C(=O)N[C@@H](C)C(=O)N1CCC[C@H]1C(=O)NCC(=O)O)[C@@H](C)O; test: as above; details: other: GalNAcTs; double reciprocal plots
[3] = substrate: C[C@H](NC(=O)[C@@H]1CCCN1C(=O)[C@@H]1CCCN1)C(=O)N[C@H](CO)C(=O)N[C@H](C(=O)N[C@H](CO)C(=O)N[C@@H](C)C(=O)N1CCC[C@H]1C(=O)NCC(=O)O)[C@@H](C)O; test: Determination of kinetic parameters for acceptor peptides (Dowex-2 assay); details: other: calculated assuming that S0 << Km; pH 7.2
Experimental: (§1) The transfer of N-acetylgalactosamine to peptide acceptors is assayed by two different assays. The concentration of UDP-GalNAc is saturating in all assays; a Km of 8 μM is reported for bovine colostrum GalNAc-transferase (Elhammer and Kornfeld, 1986). For the determination of kinetic parameters the reaction mixture contains 50 mM Imidazole, pH 7.2, 10 mM MnCl2, 0.5% Triton X-100, 150 μM UDP-GalNAc, approximately 120,000 cpm of UDP-[1-^3 H]-GalNAc, varying concentrations of acceptor (see individual experiments) and approximately 5 mU of enzyme in a final volume of 40 μl; standard incubation time is 20 minutes. The reaction is terminated by placing the samples in a boiling water bath for 1.5 minutes. The reaction product (glycosylated peptide) is separated from unreacted UDP-GalNAc by chromatography on Dowex-2 columns (0.5 ml bed volume) equilibrated in water; the run-through fraction (2.5 ml) containing the glycosylated peptide is collected, supplemented with scintillation fluid and counted for radioactivity. For the determination of the low levels of transfer to serine, the assay conditions are as follows: 50 mM Imidazole, pH 7.2, 10 mM MnCl2, 0.5% Triton X-100, 150 μM UDP-GalNAc, approximately 260,000 cpm UDP-[^3 H]-GalNAc and 3.2 mM acceptor peptide (the concentration of RSPPP is 3.7 mM). The assays are incubated for 20 minutes ([…]) [SEQ ID NO:14] or 8 hours ([…] [SEQ ID NO:15], PPAdSSdSAPG and RSPPP [SEQ ID NO:13]). Following incubation, the enzyme is inactivated by placing the samples on a boiling water bath for 1.5 minutes. The samples are then allowed to cool and the reaction products are separated from unreacted UDP-GalNAc and free GalNAc by chromatography on a Biogel P-2 column (1×50 cm) equilibrated in 7% isopropanol; thirty 1.3 ml fractions are collected.
(§2) Assays were carried out as described in Materials and Methods.
(§3) Assay time was 20 minutes.
(§4) The values are given as means ± S.E. (n = 3)

[4] = substrate: C[C@H](NC(=O)[C@@H]1CCCN1C(=O)[C@@H]1CCCN1)C(=O)N[C@@H](CO)C(=O)N[C@@H](CO)C(=O)N[C@@H](CO)C(=O)N[C@@H](C)C(=O)N1CCC[C@H]1C(=O)NCC(=O)O; test: as above; details: other: calculated assuming that S0 << Km; pH 7.2
Experimental: as §1, §2, §3, §4

[5] = substrate: C[C@@H](O)[C@H](NC(=O)[C@@H](N)CCCNC(=N)N)C(=O)N1CCC[C@H]1C(=O)N1CCC[C@H]1C(=O)N1CCC[C@H]1C(=O)O; test: as above; details: other: acceptor peptide; 150 μM UDP-GalNAc, 20 minutes; means ± S.E. (n = 3); pH 7.2
Experimental: as §1, §2, §3, §4

[6] = substrate: N=C(N)NCCC[C@H](N)C(=O)N[C@@H](CO)C(=O)N1CCC[C@H]1C(=O)N1CCC[C@H]1C(=O)N1CCC[C@H]1C(=O)O; test: as above; details: other: calculated assuming that S0 << Km; pH 7.2
Experimental: as §1, §2, §3, §4

[7] = substrate: C[C@H](NC(=O)[C@@H]1CCCN1C(=O)[C@@H]1CCCN1)C(=O)N[C@@H](CO)C(=O)N[C@H](C(=O)N[C@@H](CO)C(=O)N[C@@H](C)C(=O)N1CCC[C@H]1C(=O)NCC(=O)O)[C@@H](C)O; test: as above; details: other: acceptor peptide; 150 μM UDP-GalNAc, 20 minutes; means ± S.E. (n = 3); pH 7.2
Experimental: as §1, §2, §3, §4

| Protein | Km [1] | Km [2] | kcat/Km [3] | kcat/Km [4] | Km [5] | kcat [5] | kcat/Km [5] | kcat/Km [6] | Km [7] | kcat [7] | kcat/Km [7] |
| --- | --- | --- | --- | --- | --- | --- | --- | --- | --- | --- | --- |
| B1 | 3.6 mM and 3.5 mM | 6.5 mM | – | – | – | – | – | – | – | – | – |
| B2 | – | – | 1.2 M⁻¹ s⁻¹ | 8.5 M⁻¹ s⁻¹ | 3.3 mM | 0.604 ± 0.083 s⁻¹ | 183 M⁻¹ s⁻¹ | 0.4 M⁻¹ s⁻¹ | 6 mM | 1.81 ± 0.357 s⁻¹ | 301 M⁻¹ s⁻¹ |
